Results from publication PMC11021519, “Niche Tet maintains germline stem cells independently of dioxygenase activity” (The EMBO Journal, 2024).

B1: HA-Stat92E (natural protein, Drosophila, UniProt Q24151 1-761, looked up)
chain: MSLWKRISSHVDCEQRMAAYYEEKGMLELRLCLAPWIEDRIMSEQITPNTTDQLERVALKFNEDLQQKLLSTRTASDQALKFRVVELCALIQRISAVELYTHLRSGLQKELQLVTEKSVAATAGQSMPLNPYNMNNTPMVTGYMVDPSDLLAVSNSCNPPVVQGIGPIHNVQNTGIASPALGMVTPKVELYEVQHQIMQSLNEFGNCANALKLLAQNYSYMLNSTSSPNAEAAYRSLIDEKAAIVLTMRRSFMYYESLHEMVIHELKNWRHQQAQAGNGAPFNEGSLDDIQRCFEMLESFIAHMLAAVKELMRVRLVTEEPELTHLLEQVQNAQKNLVCSAFIVDKQPPQVMKTNTRFAASVRWLIGSQLGIHNNPPTVECIIMSEIQSQRFVTRNTQMDNSSLSGQSSGEIQNASSTMEYQQNNHVFSASFRNMQLKKIKRAEKKGTESVMDEKFALFFYTTTTVNDFQIRVWTLSLPVVVIVHGNQEPQSWATITWDNAFAEIVRDPFMITDRVTWAQLSVALNIKFGSCTGRSLTIDNLDFLYEKLQREERSEYITWNQFCKEPMPDRSFTFWEWFFAIMKLTKDHMLGMWKAGCIMGFINKTKAQTDLLRSVYGIGTFLLRFSDSELGGVTIAYVNENGLVTMLAPWTARDFQVLNLADRIRDLDVLCWLHPSDRNASPVKRDVAFGEFYSKRQEPEPLVLDPVTGYVKSTLHVHVCRNGENGSTSGTPHHAQESMQLGNGDFGMADFDTITNFENF
notes: Drosophila Stat92E, full-length isoform Stat92E-PF; source: bacteria (E. coli), pET32a(+), purified (Ni-NTA); not shown: HA, N-terminal, kept
B2: Strep-Bap55 (natural protein, Drosophila, UniProt Q7K012 1-425, looked up)
chain: MSGGTMLYGGDEIGALVFDPGHHSLRVGYAQEDSPKAEIPSVVGIGAAPETNLDPETKTDNNATPNNADQRKFYVDTNYVTVPRSNMEVQTYMKDGMIDNWDLFEKVIDYAYANVIQSEPEYHPVLFSEASWNVRNNREKLTELMFEKYNVPAFFLVKNAVLAAFSSGRATALVVDSGATHTSAVPVHEGYVLSQAVVKSPLGGDFLSRQCRQHLEKHGIDLSPVYKIASKDVVKERDNGRFTLRKLPENLTQSWQNYMLQLMMQDFQMNVLQVLENPFDERVAAQIPTVHYEFPNGYHQDFGSERFKIAESLFDNAMLGAGQLASTSVGMCDADVRLSLFGSVVVTGGNTLLQGFPERLNRDLQLRAPSNTRLKMISANGSVERRFGAWIGGSILASIGTFQQMWISSQEYEEAGKSQVERKCP
notes: Drosophila Bap55, full-length Bap55-PA; pFastBac-HTB vectors usually also add an N-terminal His6 tag; source: insect cells (baculovirus), purified (Strep-Tactin XT, Superdex 200)

Target: T1, Myc-Tet-C (Drosophila, UniProt M9NEY8-5 1846-2921)
T1 construct: Drosophila Tet, C-terminal domain, aa1846-2921 of Tet-PF (FBpp0306013); also called C-terminal domain of Tet; source: bacteria (E. coli), pET32a(+), purified (Ni-NTA); not shown: Myc, N-terminal, kept
Assay: pull-down; in vitro binding of two purified proteins (10 μg of each), overnight at 4 °C in Buffer A (50 mM Tris-HCl pH 7.5, 50 mM NaCl, 5% glycerol, 1 mM EDTA, 0.1% Igepal CA-630) with Dynabeads Protein G and 5 μg antibody (anti-HA, anti-Myc or anti-Strep); six washes; immunoblot
Settings: both partners purified

T1 sequence (M9NEY8 1785-2860): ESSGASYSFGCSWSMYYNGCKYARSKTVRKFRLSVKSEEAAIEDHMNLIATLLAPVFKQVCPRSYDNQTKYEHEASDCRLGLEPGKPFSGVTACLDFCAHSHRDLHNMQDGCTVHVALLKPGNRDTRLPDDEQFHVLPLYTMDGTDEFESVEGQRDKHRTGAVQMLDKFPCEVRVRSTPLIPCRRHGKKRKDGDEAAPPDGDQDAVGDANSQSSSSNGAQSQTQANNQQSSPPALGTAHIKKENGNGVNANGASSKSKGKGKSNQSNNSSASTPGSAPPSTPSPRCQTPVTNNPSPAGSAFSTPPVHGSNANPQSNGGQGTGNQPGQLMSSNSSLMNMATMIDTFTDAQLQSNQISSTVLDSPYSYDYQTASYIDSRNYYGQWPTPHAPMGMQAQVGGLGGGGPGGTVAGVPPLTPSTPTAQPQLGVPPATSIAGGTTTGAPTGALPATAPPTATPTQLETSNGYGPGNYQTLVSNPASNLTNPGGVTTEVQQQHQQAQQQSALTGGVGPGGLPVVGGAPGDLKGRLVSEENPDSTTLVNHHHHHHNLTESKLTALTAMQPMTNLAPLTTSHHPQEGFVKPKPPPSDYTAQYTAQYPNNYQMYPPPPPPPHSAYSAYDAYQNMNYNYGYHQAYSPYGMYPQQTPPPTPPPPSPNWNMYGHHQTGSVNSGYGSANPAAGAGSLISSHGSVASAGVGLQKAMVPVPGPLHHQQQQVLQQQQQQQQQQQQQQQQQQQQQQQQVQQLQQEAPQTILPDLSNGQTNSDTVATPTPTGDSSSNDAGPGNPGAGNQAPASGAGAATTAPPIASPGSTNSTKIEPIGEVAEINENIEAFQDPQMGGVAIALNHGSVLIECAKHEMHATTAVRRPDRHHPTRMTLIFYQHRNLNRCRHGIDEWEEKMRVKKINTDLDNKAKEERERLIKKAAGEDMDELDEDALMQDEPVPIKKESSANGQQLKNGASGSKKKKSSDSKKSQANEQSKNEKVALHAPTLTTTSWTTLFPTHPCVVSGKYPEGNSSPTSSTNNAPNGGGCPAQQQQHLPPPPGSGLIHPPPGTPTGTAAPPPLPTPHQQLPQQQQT

| Binder | binding result |
| --- | --- |
| B1 | binds |
| B2 | binds |
